Data published in article PMC6026317 (2018).
Ends that are not written are not given here.

target: T1, Soluble human FGFR1c/KLB receptor complex (FGFR1c ectodomain-Fc with soluble KLB) (human, UniProt P11362 22-376; Q86Z14 1-996); test: AlphaScreen competition with biotinylated FGF21
T1 sequence (P11362 22-376, chain 1 of 2): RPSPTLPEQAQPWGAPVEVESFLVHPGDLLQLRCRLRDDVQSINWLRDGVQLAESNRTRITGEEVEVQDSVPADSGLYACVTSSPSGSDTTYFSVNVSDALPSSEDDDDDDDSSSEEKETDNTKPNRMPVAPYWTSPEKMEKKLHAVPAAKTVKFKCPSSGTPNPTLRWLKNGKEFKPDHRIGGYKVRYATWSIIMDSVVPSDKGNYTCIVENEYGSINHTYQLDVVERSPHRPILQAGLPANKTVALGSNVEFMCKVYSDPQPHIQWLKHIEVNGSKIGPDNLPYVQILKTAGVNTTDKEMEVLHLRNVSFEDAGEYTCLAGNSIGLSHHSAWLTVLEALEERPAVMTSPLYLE
T1 sequence (Q86Z14 53-996, chain 2 of 2): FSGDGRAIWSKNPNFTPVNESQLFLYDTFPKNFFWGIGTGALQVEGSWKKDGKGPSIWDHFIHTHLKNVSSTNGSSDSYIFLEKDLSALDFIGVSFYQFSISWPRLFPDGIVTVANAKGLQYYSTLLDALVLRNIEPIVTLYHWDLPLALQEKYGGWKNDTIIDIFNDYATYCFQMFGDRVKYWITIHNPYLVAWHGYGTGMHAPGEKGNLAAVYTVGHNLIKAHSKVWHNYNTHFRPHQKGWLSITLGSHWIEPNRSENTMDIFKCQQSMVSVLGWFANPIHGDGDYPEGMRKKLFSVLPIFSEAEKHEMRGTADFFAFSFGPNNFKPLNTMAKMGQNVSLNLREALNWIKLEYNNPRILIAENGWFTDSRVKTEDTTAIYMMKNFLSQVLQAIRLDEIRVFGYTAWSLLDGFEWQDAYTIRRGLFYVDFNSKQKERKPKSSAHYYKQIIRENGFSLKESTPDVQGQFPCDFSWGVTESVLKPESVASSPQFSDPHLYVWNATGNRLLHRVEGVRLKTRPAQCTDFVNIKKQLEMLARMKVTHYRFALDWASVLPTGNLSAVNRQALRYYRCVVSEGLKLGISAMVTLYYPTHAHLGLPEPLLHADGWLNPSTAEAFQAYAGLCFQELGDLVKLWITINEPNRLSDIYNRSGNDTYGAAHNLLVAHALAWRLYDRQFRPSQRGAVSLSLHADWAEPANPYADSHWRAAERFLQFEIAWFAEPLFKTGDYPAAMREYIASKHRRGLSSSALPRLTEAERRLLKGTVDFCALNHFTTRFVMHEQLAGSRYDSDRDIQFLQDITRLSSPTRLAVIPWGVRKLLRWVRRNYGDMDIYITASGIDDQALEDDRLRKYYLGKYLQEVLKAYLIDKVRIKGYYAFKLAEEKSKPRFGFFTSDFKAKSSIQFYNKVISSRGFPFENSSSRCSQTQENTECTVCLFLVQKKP

| IC50 | Binder |
| --- | --- |
| 150 nM | PPDVGSSDPLSMVGPSQGRSPSYAS-NH2 [21C25 (C-terminal 25-residue peptide of FGF21)] |

target: T1, Soluble human FGFR1c/KLB receptor …; test: AlphaScreen competition with biotinylated FGF21; remark: another data set of the same source

| IC50 | Binder |
| --- | --- |
| 3140 nM | PPDVGSSDPLSMVGPSQGRAPSYAS-NH2 [21C25 S176A] |
| 420 nM | APDVGSSDPLSMVGPSQGRSPSYAS-NH2 [21C25 P157A] |
| 2130 nM | PPDVGASDPLSMVGPSQGRSPSYAS-NH2 [21C25 S162A] |
| 190 nM | PPDVGSADPLSMVGPSQGRSPSYAS-NH2 [21C25 S163A] |
| 150 nM | PPDVGSSDPLSMVGPSQARSPSYAS-NH2 [21C25 G174A] |
| 180 nM | PPDVGSSDPLSMVAPSQGRSPSYAS-NH2 [21C25 G170A] |
| 50 nM | PPDVGSSDPLSMVGPSQGASPSYAS-NH2 [21C25 R175A] |
| 1390 nM | PPAVGSSDPLSMVGPSQGRSPSYAS-NH2 [21C25 D159A] |
| 890 nM | PADVGSSDPLSMVGPSQGRSPSYAS-NH2 [21C25 P158A] |

Further lines, the binder ahead of its results:

| Binder | IC50 |
| --- | --- |
| PPDVGSSDPLSMVGPAQGRSPSYAS-NH2 [21C25 S172A] | 120 nM |
| PPDVGSSDPLSMVGPSAGRSPSYAS-NH2 [21C25 Q173A] | 70 nM |
| PPDVGSSDPLSMAGPSQGRSPSYAS-NH2 [21C25 V169A] | 3110 nM |
| PPDVGSSDPLSMVGPSQGRSPAYAS-NH2 [21C25 S178A] | 2870 nM |
| PPDVGSSDPLAMVGPSQGRSPSYAS-NH2 [21C25 S167A] | 200 nM |
| PPDVGSSDPLSMVGPSQGRSPSYAA-NH2 [21C25 S181A] | 50 nM |
| PPDVASSDPLSMVGPSQGRSPSYAS-NH2 [21C25 G161A] | 160 nM |
| PPDVGSSDPLSMVGPSQGRSASYAS-NH2 [21C25 P177A] | 2500 nM |
| PPDVGSSDPLSMVGPSQGRSPSAAS-NH2 [21C25 Y179A] | 2580 nM |
| PPDVGSSDPLSMVGASQGRSPSYAS-NH2 [21C25 P171A] | 130 nM |
| PPDAGSSDPLSMVGPSQGRSPSYAS-NH2 [21C25 V160A] | 3980 nM |
